Data: article PMC11140114, “Nanobodies as novel tools to monitor the mitochondrial fission factor Drp1” (Life Science Alliance, 2024)

Legend:
[1] = target: recombinant human dynamin-related protein 1 (Drp1), isoform 1 (Homo sapiens, isoform 1, UniProt O00429)
[2] = target: T1, Drp1 isoform 2, endogenous in HeLa cells (Homo sapiens (HeLa), UniProt O00429-3, strain); assay: affinity purification with mass spectrometry; D7 and D63 nanotraps against GFP-Trap, soluble protein fractions of HEK293, HeLa and U2OS cells, three replicates; label-free quantification; Drp1 captured by the immobilised Nb; conditions: one partner purified
T1 construct: also called isoform 2 of Drp1; source: endogenous, HeLa soluble protein fraction

[3] = target: T2, GFP-labelled Drp1 deletion construct GTPase (Homo sapiens, UniProt O00429); assay: pull-down; domain mapping: D7 or D63 nanotrap (Nb on NHS-sepharose) incubated overnight at 4°C with soluble protein fractions of HEK293 cells transiently expressing GFP-labelled Drp1 constructs; immunoblot with anti-GFP; conditions: one partner purified
T2 construct: Drp1 (DNM1L), human; also called N-terminal GTPase domain; source: HEK293, transiently transfected, soluble protein fraction

[4] = target: T3, GFP-labelled Drp1 deletion construct GTPase-MD-VD (Homo sapiens, UniProt O00429); assay: as above; conditions: one partner purified
T3 construct: Drp1 (DNM1L), human; source: HEK293, transiently transfected, soluble protein fraction

[5] = target: T4, GFP-labelled Drp1 deletion construct GTPase-MD (Homo sapiens, UniProt O00429); assay: as above; conditions: one partner purified
T4 construct: Drp1 (DNM1L), human; source: HEK293, transiently transfected, soluble protein fraction

recombinant human dynamin-related protein 1 (Drp1), isoform 1, sequence (O00429 whole entry, canonical isoform): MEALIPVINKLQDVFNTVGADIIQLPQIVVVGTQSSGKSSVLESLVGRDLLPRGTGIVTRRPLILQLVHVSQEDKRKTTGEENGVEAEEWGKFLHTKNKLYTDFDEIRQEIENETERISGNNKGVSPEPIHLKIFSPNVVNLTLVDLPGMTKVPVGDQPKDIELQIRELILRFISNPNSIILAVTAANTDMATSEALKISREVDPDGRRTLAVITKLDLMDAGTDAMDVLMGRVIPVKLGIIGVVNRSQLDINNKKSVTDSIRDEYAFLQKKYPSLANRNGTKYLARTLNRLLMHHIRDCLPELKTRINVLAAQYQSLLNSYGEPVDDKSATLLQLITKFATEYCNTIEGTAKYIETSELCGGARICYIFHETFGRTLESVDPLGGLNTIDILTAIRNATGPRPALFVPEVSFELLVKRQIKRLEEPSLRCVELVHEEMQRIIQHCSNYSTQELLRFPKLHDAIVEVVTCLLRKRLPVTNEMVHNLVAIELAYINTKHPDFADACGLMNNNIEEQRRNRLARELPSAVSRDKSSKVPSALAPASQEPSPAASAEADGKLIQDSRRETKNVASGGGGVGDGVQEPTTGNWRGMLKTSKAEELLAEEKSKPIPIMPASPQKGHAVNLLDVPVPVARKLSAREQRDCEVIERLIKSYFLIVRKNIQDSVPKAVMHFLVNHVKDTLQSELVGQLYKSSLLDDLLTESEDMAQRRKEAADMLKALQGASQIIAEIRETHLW

Binder	binding result [1]	also measured
D258 (VHH) VHH: EVQLQESGGESVQPGGSLRLSCVVSGTTFSTVAMGWYREVPGKKRELVARISSRGVTFYSDSVEGRFTISKDNDKSTLYLQMNSLETEDTAMYFCAAAGNSEVVLFRPKYWGQGTPVTVSS	binds	
Drp1-specific nanobody D7 (VHH, Selected by phage display from an immunised alpaca; also called D7 Nb; D7 nanotrap (immobilised on NHS-sepharose); source: E. coli periplasmic extract for the protein ELISA) VHH: QVQLVESGGGLVQPGGSLRLSCVASGFDFSTYSMTWHRQVLGKERELVASITPGGSRTNVADSVKGRFTISRDNAKNMLYLQMDRLKPEDTGMYYCAQGGYYAEPDYWGKGTRVTVSS		binding result [2]: binds; binding result [3]: binds; binding result [4]: binds; binding result [5]: binds
Drp1-specific nanobody D63 (VHH, Selected by phage display from an immunised alpaca; also called D63 Nb; D63 nanotrap (immobilised on NHS-sepharose); source: E. coli periplasmic extract for the protein ELISA) VHH: QVQLVESGGDLVQPGGSLKLSCAVSGVSDSLSSFYLMAWHRQAPGKQREMIADIVSGKATYADSVKGRFTISRDNAENTAYLQMNSLKPEDTAVYYCNVLIQNRSTFQSYWGQGTQVTVSS		binding result [2]: binds
D49 (VHH) VHH: EVQLVESGGGWVQPGGSLRLSCSASGFTFRDYVMTWVRQTPGRGLEWVSAIDGSGSKINYLDSVKGRFTISRDNTQAMLYLQMNSLRPDDTAVYYCARKGRGGLGEGTYWGKGTQVTVSS	binds	
D193 (VHH) VHH: EVQLVDSGGGLVQSGGSLTLACAASVSIDEFPAMTWYRQATGKQRELVGVITKGGATKLADSAKGRFTISRDNAKNMVYLQMTSLKPDDTAVYYCSVPNKVMGWGPDDWWGQGSQVTVSS	binds	
D219 (VHH) QVQLVESGGGMVQSGGSLSLSCAASGFAFSLYEMSWIRQAQGRGPEWVASINPGSSRTYYTDSVKGRFTISRDNDKNILYLKMNSLKPEDTALYYCARGRTLGIGISSDKGSQVTVSS	binds	
D246 (VHH) VHH: EVQLVESGGGLAQPGGSLRLSCAASGPTDNIYTMGWYRQPPGQSRQFVASVVWSTGVKAYAKFVGGRFRITKDSAKRTVDLQMDSLQPEDTAIYFCNLNDRVTPMSERDYWGQGTPVTVSS	binds	
D187 (VHH) VHH: HVQLVESGGGLVQAGESLKLSCVASGIPFSSRAMGWYRQTPGKDRELVARISVRGVTFYADSVTGRFAISRDNDRSTLYLQMNSLKSEDTAIYFCAAGDNTQTVLTRPAHWGQGTQVTVSS	binds	
